Measured values reported in patent publication US11773160 (ANAVEON, dated 2023).

Tests used:
Recombinant human IL-2 [1] = target: T1, Recombinant human IL-2 (human, UniProt P60568 21-153); test: ELISA, recombinant human IL-2 coated, antibody titrated, anti-human IgG-Peroxidase
T1 construct: also called hIL-2; recombinant IL-2 (Acro Biosystems, IL2-H4113)
Protocol: Recombinant human IL-2 was coated on Maxisorp ELISA plates (Invitrogen, 44-2404-21) at 5 µg/ml, 4° C. over night. After 2 hours blocking, antibodies A, B and C were incubated in a serial dilution starting from 10 µg/ml in assay buffer. The antibodies were detected with anti-human IgG-Peroxidase (Sigma, A0170). After addition and blockade of the […] substrate, absorption was read ($A450$-$A570$ at plate reader, Spectramax iD3). $EC50$ values were obtained by plotting Absorbance vs. log(Concentration).

Recombinant human IL-2 [2] = target: T1, Recombinant human IL-2; test: Octet BLI, antibody immobilised on amine reactive sensors, IL-2 in solution
Protocol: (§1) Antibody A, B or C were immobilized on amine reactive (2nd Generation) sensors (ForteBio, 18-5092). Association (600s) and dissociation (900s) of a dilution series of recombinant IL-2 (Acro Biosystems, IL2-H4113) were measured on the antibody-coated biosensors on an Octet-System (Octet RED, ForteBio). K_D values were obtained by fitting the kinetics data with the ForteBio Data Analysis Software (8.2).

Recombinant human IL-2 [3] = target: T1, Recombinant human IL-2; test: Octet BLI, antibody immobilised on amine reactive sensors, IL-2 in solution; Octet, free antibody B against recombinant hIL-2: weak binding, KD 269.8 nM
Protocol: as §1

T1 sequence (P60568 21-153 limits assumed): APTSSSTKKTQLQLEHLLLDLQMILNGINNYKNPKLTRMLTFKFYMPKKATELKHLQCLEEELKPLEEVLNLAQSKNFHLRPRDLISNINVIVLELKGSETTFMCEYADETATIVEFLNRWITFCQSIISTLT

| Binder | EC50 (Recombinant human IL-2 [1]) [nM] | Kd (Recombinant human IL-2 [2]) [nM] | Kd (Recombinant human IL-2 [3]) [nM] |
| --- | --- | --- | --- |
| Antibody A (antibody, human IgG1, kappa, N297A, V domains shown, Humanized full-length human IgG1 kappa; The printed heavy chain carries the N297A Fc) VH: EVQLVQSGAEVKKPGESLKISCKGSGYAFTNYLIEWVRQMPGKGLEWMGVINPGSGGTNYNEKFKGQVTISADKSISTAYLQWSSLKASDTAMYYCARWRGEGYYAYFDVWGQGTTVTVSS VL: AIRLTQSPSSFSASTGDRVTITCKASQSVDYQGDSYMNWYQQKPGKAPKLLIYAASNLESGVPSRFSGSGSGTDFTLTISSLQSEDFATYYCQQSNEDPYTFGGGTKVEIKR | 0.37 | 2.1 |  |
| Antibody B (antibody, human IgG1, kappa, V domains shown, Full-length human IgG1 kappa) VH: QVQLVESGGGVVQPGRSLRLSCAASGYTFSSYLIEWVRQAPGKGLEWVAVINPGSGGTNYADSVKGRFTISADKSKNTAYLQMNSLRAEDTAVYYCARWRGDGYYAYFDVWGQGTTVTVSS VL: EIVLTQSPATLSVSPGERATLSCRASQSVSYDGDSYMNWYQQKPGQAPRLLIYAASNLASGIPARFSGSGSGTEFTLTISSLQSEDAAVYYCQQSNEDPYTFGGGTKVEIKR |  |  | 270 |
| Antibody C (antibody, human IgG1, kappa, V domains shown, Control antibody, full-length human IgG1 kappa) VH: EVQLVQSGAEVKKPGESLKISCKGSGYSFTNFYIHWVRQAPGQRLEWMGSIYPNYGDTAYNQKFKDRFVFSLDTSVSTAYLQISSLKAEDTAVYYCARGYSYAMDYWGQGTTVTVSS VL: DIQMTQSPSSVSASVGDRVTITCSASQGISGDLNWYQQKPGKAPKLLIYHTSSLHSGVPSRFSGSGSGTDFTLTISSLQPEDFATYYCQYYSKDLLTFGGGTKLEIKR |  | > 1000 |  |
